Patent publication US20220387578A1
Where two headings read alike, the source gives them in different places.

How the values were obtained:
[1] = target: A/Duck/Czechoslovakia/1956 (Influenza A virus); experiment: ELISA on coated recombinant HA; row printed A/Duck/Czechoslovakia/1958
[2] = target: H2 HA A/Singapore/1/1957, recombinant soluble trimer (influenza A virus); experiment: ELISA on coated recombinant HA
[3] = target: H5 HA A/Indonesia/05/2005 (H5N1), recombinant (influenza A virus); experiment: ELISA on coated recombinant HA
[4] = target: A/Taiwan/2/2013 (Influenza A virus); experiment: ELISA on coated recombinant HA
[5] = target: H3 HA A/Texas/50/2012, recombinant soluble trimer (influenza A virus); experiment: ELISA on coated recombinant HA
[6] = target: A/Turkey/Ontario/6118/1967 (Influenza A virus); experiment: ELISA on coated recombinant HA
[7] = target: H12 HA A/duck/Alberta/60/1976, recombinant (influenza A virus); experiment: ELISA on coated recombinant HA
[8] = target: A/Puerto Rico/8/1934 (Influenza A virus); experiment: ELISA on coated recombinant HA
[9] = target: H3 HA A/Hong Kong/1/1968 (H3N2), recombinant soluble trimer (influenza A virus) (UniProt Q91MA7); experiment: ELISA on coated recombinant HA
[10] = target: A/Hong Kong/125/2017 (Influenza A virus); experiment: ELISA on coated recombinant HA
[11] = target: H5 HA A/Vietnam/1203/2004 (H5N1), recombinant (influenza A virus); experiment: ELISA on coated recombinant HA
[12] = target: A/Tennessee/3/2019 (Influenza A virus); experiment: ELISA on coated recombinant HA
[13] = target: A/Yokohama/110/2019 (Influenza A virus); experiment: ELISA on coated recombinant HA
[14] = target: H7 HA A/New York/107/2003, recombinant (influenza A virus)
[15] = target: H1 HA A/Texas/36/1991 (H1N1), recombinant soluble trimer (influenza A virus); experiment: ELISA on coated recombinant HA; row printed A/Texas/38/1991
[16] = target: H2 HA A/Singapore/1/1957, recombinant soluble trimer (influenza A virus); experiment: ELISA
[17] = target: H7 HA A/New York/107/2003, recombinant (influenza A virus); experiment: ELISA
[18] = target: H5 HA A/Indonesia/05/2005 (H5N1), recombinant (influenza A virus); experiment: ELISA
[19] = target: H16 HA A/black-headed gull/Sweden/4/1999, recombinant (influenza A virus); experiment: ELISA
[20] = target: H3 HA A/Texas/50/2012, recombinant soluble trimer (influenza A virus); experiment: ELISA
[21] = target: H1 HA A/Solomon Islands/03/2006 (H1N1), recombinant soluble trimer (influenza A virus); experiment: ELISA
[22] = target: H3 HA A/Switzerland/9715293/2013, recombinant soluble trimer (influenza A virus); experiment: ELISA
[23] = target: H9 HA A/Hong Kong/1073/99, recombinant (influenza A virus); experiment: ELISA
[24] = target: H7 HA A/Shanghai/2/2013 (H7N9), recombinant uncleaved trimer (influenza A virus); experiment: ELISA
[25] = target: H1 HA A/Texas/36/1991 (H1N1), recombinant soluble trimer (influenza A virus); experiment: ELISA
[26] = target: H5 HA A/Vietnam/1203/2004 (H5N1), recombinant (influenza A virus); experiment: ELISA
[27] = target: H14 HA A/mallard duck/Astrakhan/263/1982, recombinant (influenza A virus); experiment: ELISA
[28] = target: H3 HA A/Minnesota/11/10, recombinant soluble trimer (influenza A virus); experiment: ELISA
[29] = target: H13 HA A/gull/Maryland/704/1977, recombinant (influenza A virus); experiment: ELISA
[30] = target: purified HA protein of H1N1 A/California/07/2009 (Sino Biological 11085-V08B) (influenza A virus); experiment: cell-based or functional assay
[31] = target: H2 HA A/Singapore/1/1957, recombinant soluble trimer (influenza A virus); experiment: ELISA on coated recombinant HA; remark: listed apart in the source
[32] = target: H5 HA A/Indonesia/05/2005 (H5N1), recombinant (influenza A virus); experiment: ELISA on coated recombinant HA; remark: listed apart in the source
[33] = target: A/Taiwan/2/2013 (Influenza A virus); experiment: ELISA on coated recombinant HA; remark: listed apart in the source
[34] = target: H3 HA A/Texas/50/2012, recombinant soluble trimer (influenza A virus); experiment: ELISA on coated recombinant HA; remark: listed apart in the source
[35] = target: H1 HA A/Solomon Islands/03/2006 (H1N1), recombinant soluble trimer (influenza A virus); experiment: ELISA on coated recombinant HA
[36] = target: H12 HA A/duck/Alberta/60/1976, recombinant (influenza A virus); experiment: ELISA on coated recombinant HA; remark: listed apart in the source
[37] = target: A/Chicken/Germany/N/1949 (Influenza A virus); experiment: ELISA on coated recombinant HA
[38] = target: A/Fort Monmouth/1/1947 (Influenza A virus); experiment: ELISA on coated recombinant HA
[39] = target: H15 HA A/shearwater/Western Australia/2576/1979, recombinant (influenza A virus); experiment: ELISA on coated recombinant HA
[40] = target: H7 HA A/Shanghai/2/2013 (H7N9), recombinant uncleaved trimer (influenza A virus); experiment: ELISA on coated recombinant HA
[41] = target: H1 HA A/Texas/36/1991 (H1N1), recombinant soluble trimer (influenza A virus); experiment: ELISA on coated recombinant HA
[42] = target: A/Turkey/Wisconsin/1/1966 (Influenza A virus); experiment: ELISA on coated recombinant HA
[43] = target: H5 HA A/Vietnam/1203/2004 (H5N1), recombinant (influenza A virus); experiment: ELISA on coated recombinant HA; remark: listed apart in the source
[44] = target: H14 HA A/mallard duck/Astrakhan/263/1982, recombinant (influenza A virus); experiment: ELISA on coated recombinant HA
[45] = target: A/California/07/2004 (Influenza A virus); experiment: ELISA on coated recombinant HA
[46] = target: A/Duck/Czechoslovakia/1956 (Influenza A virus); experiment: ELISA on coated recombinant HA
[47] = target: eHead-H3HK68_v1 (wild-type H3 head domain monomer) (influenza A virus) (UniProt Q91MA7); experiment: SPR
[48] = target: eHead_H1Solomon (wild-type H1 head domain monomer) (influenza A virus) (UniProt B4URD6); experiment: SPR
[49] = target: H12 HA A/duck/Alberta/60/1976, recombinant (influenza A virus); experiment: ELISA
[50] = target: H15 HA A/shearwater/Western Australia/2576/1979, recombinant (influenza A virus); experiment: ELISA
[51] = target: H5 HA A/Indonesia/05/2005 (H5N1), recombinant (influenza A virus); experiment: BLI, biotinylated HA on streptavidin sensor
[52] = target: H3 HA A/Victoria/361/2011 (H3N2) (influenza A virus); experiment: BLI, biotinylated HA on streptavidin sensor
[53] = target: H3 HA A/Victoria/3/1975 (H3N2) (influenza A virus); experiment: BLI, biotinylated HA on streptavidin sensor
[54] = target: H1 HA A/Solomon Islands/03/2006 (H1N1), recombinant soluble trimer (influenza A virus); experiment: BLI, biotinylated HA on streptavidin sensor
[55] = target: H5 HA A/Vietnam/1203/2004 (H5N1), recombinant (influenza A virus); experiment: BLI, biotinylated HA on streptavidin sensor

MEDI-8852 (antibody)
EC50 [1]: 0.018 µg/mL | EC50 [2]: 0.023 µg/mL | EC50 [3]: 0.134 µg/mL | EC50 [4]: 0.157 µg/mL | EC50 [5]: 0.024 µg/mL | EC50 [6]: 0.081 µg/mL | EC50 [7]: 0.361 µg/mL | EC50 [8]: 0.013 µg/mL | EC50 [9]: 0.014 µg/mL | EC50 [10]: 0.069 µg/mL | EC50 [11]: 0.009 µg/mL | EC50 [12]: 0.014 µg/mL | EC50 [13]: 0.043 µg/mL | EC50 [14]: 0.117 µg/mL | EC50 [15]: 0.063 µg/mL

FluA-20 (hybridoma-produced IgG) (antibody)
EC50 [1]: 0.006 µg/mL | EC50 [2]: 0.007 µg/mL | EC50 [3]: 0.015 µg/mL | EC50 [4]: 0.073 µg/mL | EC50 [5]: 0.008 µg/mL | EC50 [6]: 0.004 µg/mL | EC50 [8]: 0.005 µg/mL | EC50 [10]: 0.009 µg/mL | EC50 [11]: 0.036 µg/mL | EC50 [12]: 0.007 µg/mL | EC50 [13]: 0.009 µg/mL | EC50 [14]: > 2.5 µg/mL | EC50 [16]: 0.007 µg/mL | EC50 [17]: 0.808 µg/mL | EC50 [18]: 0.085 µg/mL | EC50 [19]: > 10 µg/mL | EC50 [20]: 0.004 µg/mL | EC50 [21]: 0.005 µg/mL | EC50 [22]: 0.019 µg/mL | EC50 [23]: 0.009 µg/mL | EC50 [24]: 0.066 µg/mL | EC50 [25]: 0.004 µg/mL | EC50 [26]: 0.283 µg/mL | EC50 [27]: 0.013 µg/mL | EC50 [28]: > 10 µg/mL | EC50 [29]: 0.07 µg/mL | EC50 [15]: 0.021 µg/mL | NK cell activation (% of NK cells with IFN-γ and/or CD107a) at 0.1 µg/mL FluA-20 [30]: 1.3% | NK cell activation (% of NK cells with IFN-γ and/or CD107a) at 1 µg/mL FluA-20 [30]: 9.2% | NK cell activation (% of NK cells with IFN-γ and/or CD107a) at 10 µg/mL FluA-20 [30]: 14.6% | EC50 [31]: 0.009 µg/mL | EC50 [32]: 0.016 µg/mL | EC50 [33]: 0.061 µg/mL | EC50 [34]: 0.006 µg/mL | EC50 [35]: 0.008 µg/mL | EC50 [36]: 0.006 µg/mL | EC50 [37]: 0.037 µg/mL | EC50 [38]: 0.007 µg/mL | EC50 [39]: 0.007 µg/mL | EC50 [40]: 0.012 µg/mL | EC50 [41]: 0.009 µg/mL | EC50 [42]: 0.022 µg/mL | EC50 [43]: 0.142 µg/mL | EC50 [44]: 0.007 µg/mL | EC50 [45]: 0.008 µg/mL | EC50 [46]: 0.007 µg/mL

C05 (antibody)
Kd [47]: 170 nM | Kd [48]: 86 nM

CH65 (antibody)
Kd [48]: 340 nM

rFluA-20 IgG (recombinant FluA-20) (antibody)
EC50 [16]: 0.011 µg/mL | EC50 [18]: 0.016 µg/mL | EC50 [20]: 0.007 µg/mL | EC50 [21]: 0.008 µg/mL | EC50 [49]: 0.006 µg/mL | EC50 [23]: 0.007 µg/mL | EC50 [50]: 0.007 µg/mL | EC50 [24]: 0.013 µg/mL | EC50 [25]: 0.008 µg/mL | EC50 [27]: 0.007 µg/mL | EC50 [31]: 0.011 µg/mL | EC50 [32]: 0.016 µg/mL | EC50 [33]: 0.063 µg/mL | EC50 [34]: 0.007 µg/mL | EC50 [35]: 0.008 µg/mL | EC50 [36]: 0.006 µg/mL | EC50 [37]: 0.041 µg/mL | EC50 [38]: 0.007 µg/mL | EC50 [39]: 0.007 µg/mL | EC50 [40]: 0.013 µg/mL | EC50 [41]: 0.008 µg/mL | EC50 [42]: 0.016 µg/mL | EC50 [43]: 0.133 µg/mL | EC50 [44]: 0.007 µg/mL | EC50 [45]: 0.009 µg/mL | EC50 [46]: 0.007 µg/mL

rFluA-20 Fab
Kd [51]: 88 nM | Kd [52]: 15 nM | Kd [53]: 3460 nM | Kd [54]: 2 nM | Kd [55]: 122 nM
